Experimental data: publication PMC3229572
Several values for one entry are separate records, joined by “and”; a condition that tells them apart may be missing. Equal values may be shown once.

Target: recombinant full length M2 protein of influenza virus A/Hong Kong/8/68 (H3N2) (influenza A virus A/Hong Kong/8/68 (H3N2))

recombinant full length M2 protein of influenza virus A/Hong Kong/8/68 (H3N2) (natural protein)
stoichiometry N: 4 and 8
